From the DeepSol protein solubility set

test: soluble on expression in E. coli; label from the status in PepcDB or PDB records

Soluble on expression in E. coli, not soluble:
MGHHHHHHSHMINQRMIHMKNTKLLLAIATSAALLTGCQNTHGIDTNMAISSGLNAYKAATLSDADAKAIANQGCAEMDSGNQVASKSSKYGKRLAKIAKALGNNINGTPVNYKVYMTSDVNAWAMANGCVRVYSGLMDMMNDNEIEGVLGHELGHVALGHSLAEMKASYAIVAARDAISATSGVASQLSRSQLGDIAEGAINAKYSRDKESEADDFSFDLLKKRGISTQGLVGSFETLASLDGGRTQSMFDSHPPSTERAQHIRDRIASGK
MGHHHHHHSHMKPHFRNTVERMYRDTFSYNFYNRPILSRRNTVWLCYEVKTKGPSRPRLDAKIFRGQVPRSFIRAPFQVLSSPFGQCAPPHGTAQVQWPPQLTAGREQGRP
MGHHHHHHSHMKRDELMELIFLGTSAGVPTRTRNVTAILLNLQHPTQSGLWLFDCGEGTQHQLLHTAFNPGKLDKIFISHLHGDHLFGLPGLLCSRSMSGIIQPLTIYGPQGIREFVETALRISGSWTDYPLEIVEIGAGEILDDGLRKVTAYPLEHPLECYGYRIEEHDKPGALNAQALKAAGVPPGPLFQELKAGKTITLEDGRQINGADYLAAPVPGKALAIFGDTGPCDAALDLAKGVDVMVHEATLDITMEAKANSRGHSSTRQAATLAREAGVGKLIITHVSSRYDDKGCQHLLRECRSIFPATELANDFTVFNV
MGHHHHHHSHMPKAKKVDAVGPAADADITKPELVVPSEDPKTEEIESVEEKTVEKSTEKPVDKKGGRPVRGKKSPGSDEEAMDGEYEADEEEAALEPRRSTRGKRSYDQETGGRSVRKVVKKAKEVNKKPERAPSARGRGQKPAIGNDSTTEDGEEKKSGKNASDTDSDEEAKVVKRPTSGRMSGAPPSARMLALKKKNHDDSE
MGHHHHHHSHMPKVKRSRKAPQDGWELIEPTLDQLDQKMREAETEPHEGKRKVESLWPIFRIHHQKTRYIFDLFYKRKAYSRELLDICYKEGLADKNLLAKWKKQGIGNLCCLRCIQTRDTNFGTNCICRVPKSKLEVGRIIECTHCGCRGCSG
MGHHHHHHSHMSIRNWVTRTPSSSPPITPPASETKIMSPRKALTPVSQKSSQAEACSESRNRVKRRLDSSCLESVKQKCVKSCNCVTELDGQVENLHLDLCCLAGNQEDLSKDSLGPTKSSKIEGAGTSISEPPSPISPYASESCGTLPLPLRPCGEGSEMVGKENSSPENKNWLLAMAAKRKAENPSPRSPSSQTPNSRRQSGKTLPSPVTITPSSMRKICTYFHRKSQEDFCGPEHSTEL
MGHHHHHHSHMTAYSVGMGAEIQLCSHPIGLSKNQSRNPTKTLDSAKILACSLAQSKQPIRWEADPYNNIVYSIYYMELTLPTTPCRMLPQYQEKYGAVGRGTPYWIYYRKTLYLEIPLSERVGLKGGDTKMGIQDGTHQRDPPFYKPTPPPHIPPVLEKHTGWSYLCGYTWWTP
MGHHHHHHSHMTKIIPVASGKGGVGKTSFVANVGYKLSSLGKTVILVDLDLGGSNLHTCLGVKNKGVGIGSFINKKSKSFSDLVCKTSYDKLYLIPGDALYTGTANLPFSIKKKIIESIQKDLIADFIFLDLGSGTSYNTIDFYLASYSGVIVTIPETPSILNAYSFLKNALYRLLYLGFP
MGHHHHHHSHMTLKSSGRISDVFLCRHEKIFHPNKGYIYVVKVMRENTHEATYIQRTFEEFQELHNKLRLLFPSSHLPSFPSRFVIGRSRGEAVAERRREELNGYIWHLIHAPPEVAECDLVYTFFHPLPRDEKAMGTSPAPKSSDGTWARPVGKVGGEVKLSISYKNNKLFIMVMHIRGLQLLQDGNDPDPYVKIYLLPDPQKTTKRKTKVARKTCNPTYNEMLVYDGIPKGDLQQRELQLSVLSEQGFWENVLLGEVNIRLRELDLAQEKTGWFALGSRSHGTL
MGHHHHHHSHMVISWHLASDMDCVVTLTTDAARRIYDETQGRQQVLPLDSIYKKTLPDWKRSLPHFRNGKLYFKPIGDPVFARDLLTFPDNVEHCETVFGMLLGDTIILDNLDAANHYRKEVVKITHCPTLLTRDGDRIRSNGKFGGLQNKAPPMDKLRGMVFGAPVPKQCLILGEQIDLLQQYRSAVCKLDSVNKDLNSQLEYLRTPDMRKKKQELDEHEKNLKLIEEKLGMTPIRKCNDSLRHSPKVETTDCPVPPKRMRREATRQNRIITKTDV
MGHHHHHHSHMVTPVTWMDNPIEVYVNDSVWVPGPTDDHCPAKPEEEGMMINISIGYHYPPICLGRAPGCLMPAVQNWLVEVPTVSPISRFTYHMVSGMSLRPRVNYLQDFSYQRSLKFRPKGKPCPKEIPKGSKNTEVLVWEECVANSAVILQNSEFGTIID
MGHHHHHHSHMVYPEEPFWVLPTVTGFYEDRDYRVNVVEALQEFWQMKQSRGAELKNGALVIYESIPSNSQPYICFVTLPGGSCFGSFQNCPTKAEARRSSAKIALMNSVFNEHPSRRISDEFIQKAVQDARTSFKGTSQINEGTESGIGAFRFMLEANKGRTMLEFQELMTVFQLLHWNGSLKAMRERHCSRQEVVAHYSNRSLDDEMRSQMALDWIAREHDNPGVIRRELVLAERELETFRMAGRELRFPKEKKDILMIAHNQLGGSALNSATIDD
MGHHHHHHSHMYAKEIFSYMKEREEQFILTDYMNRQIEITSDMRAILVDWLVEVQVSFEMTHETLYLAVKLVDLYLMKAVCKKDKLQLLGATAFMIAAKFEEHNSPRVDDFVYICDDNYQRSEVLSMEINILNVLKCDINIPIAYHFLRRYAR
MGHHHHHHSHVLLNEILEQVKDRTCLRALEKIKIQLEKGNKEFGDQAEAAQDATLTTTTFQNEDEKNKEVYMTPLRGVKATQASKSTQLKTNRGQRKVTVSARTNRRCQTAEADSESDHEVPEPESEMKMRLPRRAKTAALEKSKLNLAQFLNEDLS
MGIGKEIRLERIMNRETRKTIIVPMDHGVSSGPIEGIVNIREAVEKVAEGGANAVVLHKGMVRAGHRGRGRDIGLIVHLSASTDLSPRKNDKVLVCTVEEAIRLGADAVSIHVNIGAEGEREMLKDFGYVSKVCEEWQMPLLAMVYGRGPKIENQYDPKVVAHCARVGAELGADIVKVPYTGDPETFKLAIEGSPIPVVIAGGPKMKSEREVLEMVQGAMQAGAAGLSIGRNIFQAKDPAKMVRAMSLIVHEGKSVEEAFEILK
MGKGLLGKRVAIGGSRKTEEISTIIEKQGGIPVIRPLQGTVYLAEKQVEPDLRTFAEEKADWVIFTTGIGLETLVDMAEKIGLKDEFLQAIRQAKAACRGYKTLSALKKLGITPEASDEDGTTRGLIRSLEPHDFSGKTVMVQLHGEKAPALMAFLEEKGASVLPILPYQHIPPEEETVERLCRELMNDEVDAVCFTTAIQVRSLFDFAKGRGYINEVKKVFEERAIAAAVGKVTAEALREEGITRLLAPEIERMGAMIVELAKYYEEKE
MGKKAKLGHKTGVNKGILLTDRQRLNWLRLLRSENIGAVSFRNLIDHYKTAENALAALPELSRKGGLATSIRIATLEDAEKEMQEAEKLGIRFVGIGEPDYPTFLKVTEASPPLIAIKGNVSVFEKASVGIVGSRNASAAGKKLAAQFAHFLGNADFTIISGLARGIDSIAHQASLQTGTVAVMAGGIDHIYPPENKKLHEDIIANGGAIISEMPIGWKPRAIDFPRRNRIIAGLSLGLLVVEAALQSGSLITARQAAEMGRLTFAIPGSPLDPRSVGTNNLLKDGALLTTHPSDIIETLTPLIPTPTNHQLNFFEELPSLQLEKDCFNSSDKKTKITSFVGDERERRAVLSALSTTPIDLDTLSTNSGVSLSNLYLLLVELELAGKLIRHSGGYVSLSNFDLLQEPPHY

Soluble on expression in E. coli, soluble:
MGHHHHHHSHMSSSAGSGHQPSQSRAIPTRTVAISDAAQLPHDYCTTPGGTLFSTTPGGTRIIYDRKFLLDRRNSPMAQTPPCHLPNIPGVTSPGTLIEDSKVEVNNLNNLNNHDRKHAVGDDAQFEMDI
MGHHHHHHSHRNRARFAARKQLVLNLVSSPGSGKTTLLTETLMRLKDSVPCAVIEGDQQTVNDAARIRATGTPAIQVNTGKGCHLDAQMIADAAPRLPLDDNGILFIENVGNLVCPASFDLGEKHKVAVLSVTEGEDK
MGIDKELYKACETALKQCMGVKPGETVLVIADEPEREIGYHLWMKAKELGAEAIYVEILPRKMHGEEPPKPVAEAMKVADVVIAPTSKSITHTLAKKEACERGARVATLPGITREIFVRTMSADYEGMLELTNKIADVLDKGKEVHILTPLGTDLKFSIEGRKARRSTGIYRNPGECGNLPGAEAYIAPLEGTANGRVVIDGSMAGIGVLKEPIEIIVKDGFAEDIRGGEEAEKLREILSRYGKEARNIAEFGVGTNPKARISGNILEDEKVFGTVHIALGSNYDFGGKVKAPVHLDGIIKEPTVLIDGKYLFKDGNLVI
MGKALVIVESPAKAKTINKYLGSDYVVKSSVGHIRDLPTSGSAAKKSADSTSTKTAKKPKKDERGALVNRMGVDPWHNWEAHYEVLPGKEKVVSELKQLAEKADHIYLATDLDREGEAIAWHLREVIGGDDARYSRVVFNEITKNAIRQAFNKPGELNIDRVNAQQARRFMDRVVGYMVSPLLWKKIARGLSAGRVQSVAVRLVVEREREIKAFVPEEFWEVDASTTTPSGEALALQVTHQNDKPFRPVNKEQTQAAVSLLEKARYSVLEREDKPTTSKPGAPFITSTLQQAASTRLGFGVKKTMMMAQRLYEAGYITYMRTDSTNLSQDAVNMVRGYISDNFGKKYLPESPNQYASKENSQEAHEAIRPSDVNVMAESLKDMEADAQKLYQLIWRQFVACQMTPAKYDSTTLTVGAGDFRLKARGRILRFDGWTKVMPALRKGDEDRILPAVNKGDALTLVELTPAQHFTKPPARFSEASLVKELEKRGIGRPSTYASIISTIQDRGYVRVENRRFYAEKMGEIVTDRLEENFRELMNYDFTAQMENSLDQVANHEAEWKAVLDHFFSDFTQQLDKAEKDPEEGGMRPNQMVLTSIDCPTCGRKMGIRTASTGVFLGCSGYALPPKERCKTTINLVPENEVLNVLEGEDAETNALRAKRRCPKCGTAMDSYLIDPKRKLHVCGNNPTCDGYEIEEGEFRIKGYDGPIVECEKCGSEMHLKMGRFGKYMACTNEECKNTRKILRNGEVAPPKEDPVPLPELPCEKSDAYFVLRDGAAGVFLAANTFPKSRETRAPLVEELYRFRDRLPEKLRYLADAPQQDPEGNKTMVRFSRKTKQQYVSSEKDGKATGWSAFYVDGKWVEGKK
MGKITGFLEIERHDRKYTPVAERVKHFHEFVVPLTERETRDQAARCMNCGIPYCHGTGSVAPGTPGCPVNNQIPDFNDLVYQGNWEEASRNLHSTNNFPEFTGRICPAPCEASCTLNIDDNPVTIKTIECAIVDRAWDNGWLKPEVASVKTGKKVAVIGSGPAGMACAQQLARAGHDVHLFEKFAKAGGLLRYGIPDFKMEKGIIDRRVKQMEGEGVTFHYNSHVGADGNVDPREMLNEYDAVALTGGAEAPRDLPIPGRDLQGIHYAMDFLPQQNRRVSEEPLNGVTEILAGGKHVVVIGGGDTGSDCIGTSLRQGALSVTQLEIMPAPPERENKGLTWPNWPLKMRTSSSQAEGAIREFAVLTQKFSGENGQVKKLHCVRVDDKFKPIAGTEFELDAELVLLAMGFVHPVHEGLLKLLSVELDPRGNVKANTLDYQTSRPNVFTAGDMRRGQSLVVWAIREGRLCARSIDTFLMGKTDLPRLEHHHHHH
